Test results from patent US20140220017A1 (published 2014).

Experiments:
mouse IgG [1] = target: mouse IgG (mouse); test: QCM; pH 7.4
human IgG [2] = target: human IgG (human); test: QCM; pH 7.4
human IgG Fab [3] = target: human IgG Fab (human); test: QCM; pH 7.4
mouse IgG Fc = mouse IgG Fc (mouse); test: QCM; pH 7.4
mouse IgG Fab [4] = target: mouse IgG Fab (mouse); test: QCM; pH 7.4
human IgG Fc [5] = target: human IgG Fc (human); test: QCM; pH 7.4
mouse IgG [6] = target: mouse IgG (mouse); test: QCM; pH 6
human IgG [7] = target: human IgG (human); test: QCM; pH 6
human IgG Fab [8] = target: human IgG Fab (human); test: QCM; pH 6
mouse IgG Fab [9] = target: mouse IgG Fab (mouse); test: QCM; pH 6
human IgG Fc [10] = target: human IgG Fc (human); test: QCM; pH 6

- Kd (mouse IgG [1]): 0.058 µM
- Kd (human IgG [2]): 0.006 µM
- Kd (human IgG Fab [3]): 0.19 µM
- Kd (mouse IgG Fc): 0.024 µM
- Kd (mouse IgG Fab [4]): 0.19 µM
- Kd (human IgG Fc [5]): 0.01 µM
- Kd (mouse IgG [6]): 0.046 µM
- Kd (human IgG [7]): 0.005 µM
- Kd (human IgG Fab [8]): 0.15 µM
- Kd (mouse IgG Fab [9]): 0.19 µM
- Kd (human IgG Fc [10]): 0.0036 µM
B1: SpGC3 (other)
chain: DAAQPAMAQVKLQQSGAELVRSGTSVKLSCTASGFNIKDSYMHWLRQGPEQGLEWIGWIDPENGDTEYAPKFQGKATFTTDTSSNTAYLQLSSLTSEDTAVYYCNEGTPTGPYYFDYWGQGTTVTVSSGGGGSDIQMTQSPSSLSASVGDRVTITCRASQDIRNYLNWYQQKPGKAPKLLIYYTSRLESGVPSRFSGSGSGTDYTLTISSLQPEDFATYYCQQGNTLPWTFGQGTKVEIKRGGGGSGGRASGGGGSEVQLVESGGGLVQPGGSLRLSCAASGYSFTGYTMNWVRQAPGKGLEWVALINPYKGVSTYNQKFKDRFTISVDKSKNTAYLQMNSLRAEDTAVYYCARSGYYGDSDWYFDVWGQGTLVTVSSGGGGSDIELTQSPAIMSASPGEKVTITCSASSSVSYMHWFQQKPGTSPKLWIYSTSNLASGVPARFSGSGSGTSYSLTISRMEAEDAATYYCQQRSSYPLTFGAGTKLELKRAAAGGSGGTTYKLVINGKTLKGETTTKAVDAETAEKAFKQYANDNGVDGVWTYDDATKTFTVTEGGSHHHHHH
